Two molecules from PMC3401101 can be followed below.

For assay [1], the target named is T1, DNA topoisomerase IIIα (UniProt Q13472).
T1 sequence: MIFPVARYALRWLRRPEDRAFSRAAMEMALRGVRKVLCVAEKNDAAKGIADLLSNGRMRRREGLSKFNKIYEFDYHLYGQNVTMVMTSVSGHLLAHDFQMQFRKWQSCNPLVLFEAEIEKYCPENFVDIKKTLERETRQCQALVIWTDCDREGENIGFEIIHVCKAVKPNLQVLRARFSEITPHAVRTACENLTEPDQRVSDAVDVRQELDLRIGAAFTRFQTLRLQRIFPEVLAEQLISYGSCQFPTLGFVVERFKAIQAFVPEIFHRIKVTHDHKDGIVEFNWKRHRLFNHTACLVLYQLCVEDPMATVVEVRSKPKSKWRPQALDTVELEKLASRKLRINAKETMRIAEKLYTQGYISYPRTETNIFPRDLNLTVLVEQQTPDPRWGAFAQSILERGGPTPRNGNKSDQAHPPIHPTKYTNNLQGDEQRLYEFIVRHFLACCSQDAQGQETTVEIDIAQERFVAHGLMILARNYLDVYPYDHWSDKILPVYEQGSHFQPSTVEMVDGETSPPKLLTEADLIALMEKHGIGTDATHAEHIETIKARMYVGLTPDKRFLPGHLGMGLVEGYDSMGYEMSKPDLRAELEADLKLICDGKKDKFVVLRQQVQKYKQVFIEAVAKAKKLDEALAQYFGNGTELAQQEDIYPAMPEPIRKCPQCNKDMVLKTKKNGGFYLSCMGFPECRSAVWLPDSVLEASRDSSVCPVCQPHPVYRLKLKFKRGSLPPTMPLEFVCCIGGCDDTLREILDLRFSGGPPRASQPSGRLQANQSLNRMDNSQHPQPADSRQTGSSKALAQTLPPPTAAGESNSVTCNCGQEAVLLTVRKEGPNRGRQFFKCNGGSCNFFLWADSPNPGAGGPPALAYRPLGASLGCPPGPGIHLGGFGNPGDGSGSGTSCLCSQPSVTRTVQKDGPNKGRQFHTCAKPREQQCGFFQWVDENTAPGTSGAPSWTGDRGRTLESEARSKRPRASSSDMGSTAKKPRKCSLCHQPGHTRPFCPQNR

Assay [2] concerns the target T1, DNA topoisomerase IIIα. This is another data set of the same source.

For the molecule “BLM (from UniProt P54132 1-1417) (enzyme)”, in the assay with DNA topoisomerase IIIα [1], the TopoIIIα decatenase activity with BLM (33-66 nM) in the presence of RPA (100 nM), against TopoIIIα alone is 1.5 fold.

B1: RMI1 (natural protein)
chain: MNVTSIALRAETWLLAAWHVKVPPMWLEACINWIQEENNNVNLSQAQMNKQVFEQWLLTDLRDLEHPLLPDGILEIPKGELNGFYALQINSLVDVSQPAYSQIQKLRGKNTTNDLVTAEAQVTPKPWEAKPSRMLMLQLTDGIVQIQGMEYQPIPILHSDLPPGTKILIYGNISFRLGVLLLKPENVKVLGGEVDALLEEYAQEKVLARLIGEPDLVVSVIPNNSNENIPRVTDVLDPALGPSDEELLASLDENDELTANNDTSSERCFTTGSSSNTIPTRQSSFEPEFVISPRPKEEPSNLSIHVMDGELDDFSLEEALLLEETVQKEQMETKELQPLTFNRNADRSIERFSHNPNTTNNFSLTCKNGNNNWSEKNVSEQMTNEDKSFGCPSVRDQNRSIFSVHCNVPLAHDFTNKEKNLETDNKIKQTSSSDSHSLNNKILNREVVNYVQKRNSQISNENDCNLQSCSLRSSENSINLSIAMDLYSPPFVYLSVLMASKPKEVTTVKVKAFIVTLTGNLSSSGGIWSITAKVSDGTAYLDVDFVDEILTSLIGFSVPEMKQSKKDPLQYQKFLEGLQKCQRDLIDLCCLMTISFNPSLSKAMVLALQDVNMEHLENLKKRLNK
For B1, in the assay with DNA topoisomerase IIIα [2], the TopoIIIα-mediated decatenation of single-stranded catenane with both BLM (17 nM) and RMI1 (75-150 nM) in the presence of RPA (100 nM), against TopoIIIα alone came to 30 fold.
